{"source": "patent US20030207791A1", "about": "“Materials and methods relating to the treatment of leukaemias” (priority 2000, published 2003)", "molecules": {"B1": {"name": "coiled coil of PML: coiled coil of PML including the additional amino-terminal region, expressed from retroviral vector (protein)", "chain": "MEPAPARSPRPQQDPARPQEPTMPPPETPSEGRQPSPSPSPTERAPASEEEFQFLRCQQCQAEAKCPKLLPCLHTLCSGCLEASGMQCPICQAPWPLGADTPALDNVFFESLQRRLSVYRQIVDAQAVCTRCKESADFWCFECEQLLCAKCFEAHQWFLKHEARPLAELRNQSVREFLDGTRKTNNIFCSNPNHRTPTLTSIYCRGCSKPLCCSCALLDSSHSELKCDISAEIQQRQEELDAMTQALQEQDSAFGAVHAQMHAAVGQLGRARAETEELIRERVRQVVAHVRAQERELLEAVDARYQRDYEEMASRLGRLDAVLQRIRTGSALVQRMKCYASDQEVLDMHGFLRQALCRLR"}, "B2": {"name": "RAR: retinoic acid receptor α, wild type (protein)", "chain": "MASNSSSCPTPGGGHLNGYPVPPYAFFFPPMLGGLSPPGALTTLQHQLPVSGYSTPSPATIETQSSSSEEIVPSPPSPPPLPRIYKPCFVCQDKSSGYHYGVSACEGCKGFFRRSIQKNMVYTCHRDKNCIINKVTRNRCQYCRLQKCFEVGMSKESVRNDRNKKKKEVPKPECSESYTLTPEVGELIEKVRKAHQETFPALCQLGKYTTNNSSEQRVSLDIDLWDKFSELSTKCIIKTVEFAKQLPGFTTLTIADQITLLKAACLDILILRICTRYTPEQDTMTFSDGLTLNRTQMHNAGFGPLTDLVFAFANQLLPLEMDDAETGLLSAICLICGDRQDLEQPDRVDMLQEPLLEALKVYVRKRRPSRPHMFPKMLMKITDLRSISAKGAERVITLKMEIPGSMPPLIQEMLENSEGLDTLSGQPGGGGRDGGGLAPPPGSCSPSLSPSSNRSSPATHSP"}, "B3": {"name": "CC-RAR: fusion of the coiled coil region of PML to RAR (protein)", "chain": "SELKCDISAEIQQRQEELDAMTQALQALQEQDSAEGAVHAQMHAAVGQLGRARAETEELIRERVRQVVAHVRAQERELLEAVDARYQRDYEEMASRLGRLDAVLQRIRTGSALVQRMKCYASDQEVLDMHGFLRQALCRLRMASNSSSCPTPGGGHLNGYPVPPYAFFFPPMLGGLSPPGALTTLQHQLPVSGYSTPSPATIETQSSSSEEIVPSPPSPPPLPRIYKPCFVCQDKSSGYHYGVSACEGCKGFFRRSIQKNMVYTCHRDKNCIINKVTRNRCQYCRLQKCFEVGMSKESVRNDRNKKKKEVPKPECSESYTLTPEVGELIEKVRKAHQETFPALCQLGKYTTNNSSEQRVSLDIDLWDKFSELSTKCIIKTVEFAKQLPGFTTLTIADQITLLKAACLDILILRICTRYTPEQDTMTFSDGLTLNRTQMHNAGFGPLTDLVFAFANQLLPLEMDDAETGLLSAICLICGDRQDLEQPDRVDMLQEPLLEALKVYVRKRRPSRPHMFPKMLMKITDLRSISAKGAERVITLKMEIPGSMPPLIQEMLENSEGLDTLSGQPGGGGRDGGGLAPPPGSCSPSLSPSSNRSSPATHSP"}}, "key": {"[1]": {"test_system": "U937 cells expressing PML-RAR under the control of an inducible promoter", "test": "Differentiation (CD14) of U937 cells with inducible PML-RAR treated with vitamin D and TGFβ", "type": "cell-based", "settings": "for differentiated, CD14+ cells: cells expressing the coiled coil of PML, vitamin D and TGFβ", "text": "The cells were either uninduced (ctr column), or induced to express PML-RAR (PML-RAR column). Cells were transduced with retroviral vectors encoding the coiled coil of PML (RBCC) and GFP as a marker, or with retroviral vectors encoding GFP alone as a control (control). […] In cells expressing the coiled coil of PML (gated in the cytofluorimetric analysis based on the positivity for the GFP marker), PML-RAR was unable to block efficiently differentiation (from 90% to 70%). Levels of expression of PML-RAR were unchanged by expressing the coiled coil region of PML.\nRAR oligomerization through the coiled coil region of PML is required for its leukemogenic activity, and deletion of the PML coiled coil is sufficient to lead to loss of oncogenic potential (Minucci et al., 2000). Small molecule compounds able to disrupt PML-RAR oligomers would therefore be able to revert the leukemic phenotype."}, "[2]": {"test_system": "RARE-G5-TATA reporter (GAL4-VP16 driven transcription)", "test": "Transcriptional repression of GAL4-VP16 activation, RARE-G5-TATA reporter, transfected HeLa cells", "type": "cell-based", "protocol": "FIG. 2. Role of the coiled coil of PML in the altered transcriptional properties of PML-RAR (A): Transcriptional repression by RAR and fusion proteins. Hela cells were co-transfected with the RARE-G5-TATA reporter in the absence (C) or presence of increasing amounts (50, 100, 250, 1000 ng) of the indicated expression vectors and then harvested 48 hours after transfection. Levels of expression of RAR and fusion proteins after transfection are shown in (C). (B) RARE and NCoR dependent transcriptional repression by RAR and fusion proteins. Hela cells were co-transfected with the RARE-G5-TATA or the G5-TATA, reporters and 1 μg of control expression vector (C), RAR (R), PML-RAR (P/R) and their respective AHT derivatives, as indicated. (D) RA sensitivity of RAR and fusion proteins. Cells were co-transfected with 500 ng of the indicated expression vectors. 24 hours after transfection, RA was added at the following concentrations: 1, 10, 100 nM, 1, 10 μM, and cells were harvested after additional 24 hours.\nTo test this hypothesis, the inventors devised an artificial, reporter system to measure transcriptional repression by RAR and chimeric proteins. The RARE-G5-TATA reporter construct has five GAL4 response elements fused to a minimal promoter region: upstream of the GAL4 sites, a RA responsive element (RARE) allows binding of RAR (or fusion proteins). […] RAR over-expression led to decrease of GAL4-VP16 activation, with 30-40% repression observed with the maximal amount of co-transfected RAR expression vector (1 μg, FIG. 2A), while it exerted no effect on the GAL4-VP16-mediated activation of a cognate promoter lacking the RARE (FIG. 2B). A RAR construct carrying the AHT mutation, which abrogates NCoR binding (Horlein et al., 1995), was unable to prevent activation of the RARE-G5-TATA promoter by GAL4-VP16 (FIG. 2B).\nNext, the inventors tested the transcriptional regulatory functions of PML-RAR (or derivatives). […] At the maximal concentration tested (1 μg), the inventors observed 80-90% repression with PML-RAR and 30-40% with RAR (FIG. 2A).\nTransient transfection of HeLa, NIH 3T3, SAOS and C33A cells was performed by calcium phosphate as described (Lillie and Green, 1989; Minucci et al., 1994). p53-/- MEFs were transiently transfected by lipofection as described (Pearson et al., 2000). Light units were normalized to expression of a co-transfected β-galactosidase expression plasmid. Results are presented as the mean+standard deviations of at least three independent experiments."}, "GST-NCoR": {"biological_target": "T1, GST-NCoR (Mus musculus, UniProt Q60974)", "T1 construct": "made in house", "T1 sequence (Q60974 1782-2453)": "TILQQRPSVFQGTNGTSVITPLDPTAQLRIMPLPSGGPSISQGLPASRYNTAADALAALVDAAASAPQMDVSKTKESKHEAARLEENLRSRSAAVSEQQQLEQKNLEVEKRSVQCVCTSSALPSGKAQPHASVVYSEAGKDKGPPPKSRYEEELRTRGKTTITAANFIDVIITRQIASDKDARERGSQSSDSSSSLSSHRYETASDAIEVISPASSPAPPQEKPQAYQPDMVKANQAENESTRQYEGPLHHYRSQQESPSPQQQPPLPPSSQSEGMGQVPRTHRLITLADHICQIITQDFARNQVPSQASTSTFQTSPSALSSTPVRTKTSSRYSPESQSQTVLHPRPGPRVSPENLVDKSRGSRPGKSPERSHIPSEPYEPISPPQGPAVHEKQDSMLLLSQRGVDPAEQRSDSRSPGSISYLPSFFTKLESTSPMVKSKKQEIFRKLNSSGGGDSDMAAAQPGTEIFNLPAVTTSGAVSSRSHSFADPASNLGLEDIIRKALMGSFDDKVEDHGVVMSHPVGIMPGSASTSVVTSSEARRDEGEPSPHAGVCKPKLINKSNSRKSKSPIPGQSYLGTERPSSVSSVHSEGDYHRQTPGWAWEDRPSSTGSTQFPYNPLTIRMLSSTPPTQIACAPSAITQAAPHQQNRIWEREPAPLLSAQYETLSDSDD", "test": "GST-NCoR pull-down assay with in vitro translated 35S labelled proteins", "type": "binding", "protocol": "FIG. 1. Enhanced recruitment of NCoR by PML-RAR is due to the coiled coil region of PML. Increasing amounts of GST -NCoR (from 150 ng to 10 μg) coupled to agarose beads were incubated with the indicated in vitro translated, ^35-S labelled proteins. On the left, a schematic representation of the in vitro translated products, with the tripartite motif of PML highlighted (R, RING finger; B, B boxes; CC, coiled coil). The input lanes are loaded with the same amounts used in the pull-down experiments.\nRecruitment of the NCoR-HDAC complex is crucial for the transforming potential of PML-RAR. At low concentrations of RA (1-100 nM), the stability of the PML-RAR-NCoR complex is higher than that of the RAR-NCoR complex (Grignani et al., 1998; He et al., 1998; Lin et al., 1998). […] Pull-down assays were performed by incubation of in vitro translated, ^35S labelled PML-RAR or RAR with GST-NCoR coupled to agarose beads.\nGST-NCoR (1782-2453) or GST-NCoR (RDIII) purification and in vitro interaction experiments were performed as described, incubating the indicated amounts of GST-NCoR attached to a constant amount of glutathione-agarose beads in the presence of the appropriate ^35-S labelled, in vitro translated proteins(Gelmetti et al., 1998; Grignani et al., 1998; Zamir et al., 1996). The input lanes represent 100% of the total. Coimmunoprecipitation experiments were performed as described(Gelmetti et al., 1998), using extracts from transiently transfected COS-1 cells, or in vitro translated products."}}}
{"molecule": "B1", "values": [{"measurement": "differentiated, CD14+ cells", "setting": "[1]; PML-RAR induced", "value": 70, "unit": "%"}, {"measurement": "toxicity", "setting": "[1]; uninduced cells", "value": "did not notice appreciable toxicity"}, {"measurement": "differentiated, CD14+ cells", "setting": "[1]; uninduced", "value": 90, "unit": "%"}]}
{"molecule": "B2", "values": [{"measurement": "amount of expression vector necessary to measure significant transcriptional repression", "setting": "[2]", "value": "at least 250 ng"}, {"measurement": "repression of GAL4-VP16 activation", "setting": "[2]; maximal amount of expression vector, 1 μg", "value": "30-40%"}, {"measurement": "higher amounts of GST-NCoR required to obtain significant binding, compared with PML-RAR", "setting": "GST-NCoR; GST-NCoR 150 ng to 10 μg", "value": "15-30 fold"}]}
{"molecule": "B3", "values": [{"measurement": "capacity to repress GAL4-VP16 driven transcription", "setting": "[2]", "value": "as strongly as PML-RAR"}, {"measurement": "binding to GST-NCoR", "setting": "GST-NCoR; increasing amounts of GST-NCoR", "value": "same characteristics of binding as PML-RAR"}]}
